# Measured values: publication PMC5555201, “Parallel homodimer structures of the extracellular domains of the voltage-gated sodium channel β4 subunit explain its role in cell–cell adhesion” (The Journal of Biological Chemistry, 2017)
# B1: mouse β4 subunit extracellular domain fragment (residues 30–160) with a C-terminal His6 tag (domain or fragment, UniProt Q7M729 30-160, looked up)
# chain: SLEVSVGKATTIYAINGSSILLPCTFSSCYGFENLYFKWSYNNSETSRILIDGIVKNDKSDPKVRVKDDDRITLEGSTKEKTNNISILLSDLEFSDTGRYTCFVRNPKEKDLNNSATIFLQVVDKLEKVDN
# notes: voltage-gated sodium channel β4 subunit, mouse, GenBank BK001031.1, residues 30–160 (numbering starts from the initiator methionine residue); all three Cys residues kept; Cloned into pGEX6P2; GST cleaved with PreScission protease; also called mouse β4ex; mouse β4 (cubic form); source: E. coli BL21DE3, purified (nickel-Sepharose, glutathione-Sepharose, Mono Q); not shown: His6, C-terminal, kept
# B2: human β4 subunit extracellular domain fragment (residues 30–152) (domain or fragment, UniProt Q8IWT1-1 30-152, looked up)
# chain: SLEVSVGKATDIYAVNGTEILLPCTFSSCFGFEDLHFRWTYNSSDAFKILIEGTVKNEKSDPKVTLKDDDRITLVGSTKEKMNNISIVLRDLEFSDTGKYTCHVKNPKENNLQHHATIFLQVV
# notes: voltage-gated sodium channel β4 subunit, human, GenBank NP_777594, residues 30–152; all three Cys residues kept; His tag cleaved by tobacco etch virus protease; also called human β4ex; human β4 (hexagonal form); source: E. coli cell-free protein synthesis, purified (HisTrap, HiTrap Q, Superdex 75); not shown: His tag, N-terminal, cleaved
# Legend:
# [1] = target: the molecule itself; test: crystal structure; mouse β4ex, cubic crystal form, 3.1 Å; 2.7 M sodium malonate, 0.1 M Tris-HCl (pH 7.0), 0.5% Tween 20, 20 °C; two molecules in the asymmetric unit related by non-crystallographic 2-fold symmetry
# [2] = target: the molecule itself; test: SEC; HiLoad 16/60 Superdex 75, non-reducing conditions; second peak (65–75 ml) of the anion exchange chromatography; 20 mM Tris-HCl (pH 8.0), 150 mM NaCl, 10% glycerol
Protein,binding result [1],stoichiometry N [2]
B1,binds,–
B2,–,2
